Laboratory results published in article doi:10.1101/2021.07.22.453419 (2021).

Target: T1, Papain (E.C.3.4.22.2, from papaya latex) (papaya, UniProt P00784 134-345)
T1 chain: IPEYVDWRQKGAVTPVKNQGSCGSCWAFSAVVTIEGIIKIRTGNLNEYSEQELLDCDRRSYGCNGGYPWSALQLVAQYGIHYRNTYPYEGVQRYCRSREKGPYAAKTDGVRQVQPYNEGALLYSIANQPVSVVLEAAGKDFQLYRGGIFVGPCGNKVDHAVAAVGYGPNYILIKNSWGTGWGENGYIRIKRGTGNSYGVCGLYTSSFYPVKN

B1: tomato cystatin SlCYS8 (natural protein)
chain: NPGGITNVPFPNLPQFKDLARFAVQDYNKKENAHLEFVENLNVKEQVVAGIIYYITLVATDAGKKKIYETKILVKGWENFKEVQEFKLVGDATK
B1 was tested, and the Ki was 14.7 nM.
